Source: patent publication US20250382374A1 (VIRIDIAN THERAPEUTICS, published 2025)
Each block holds one binder with its values, some of them ahead of it.

Columns and labels:
[1] = target: T1, IGF-1R on A549 human lung adenocarcinoma cells or primary human ocular choroid fibroblasts (HOCF) (human, UniProt P08069 31-1367); experiment: cell based binding assay on A549 cells; YTE only heavy chain (SEQ ID NO: 94)
T1 construct: whole, on cells; Endogenous receptor on human cell lines; also called IGF-1R on A549 cells; IGF-1R on HOCF cells

[2] = target: T1, IGF-1R on A549 human lung …; experiment: cell-based or functional assay
[3] = target: T1, IGF-1R on A549 human lung …; experiment: cell based binding assay on A549 cells; C22S plus YTE heavy chain (SEQ ID NO: 95)
[4] = target: T1, IGF-1R on A549 human lung …; experiment: flow cytometry on HOCF cells, binding dose response curve (MFI)
Method: (§1) Unbound antibody was removed by washing, and the cells were incubated with an Alexa Fluor 488™—goat anti-human antibody (fluorescently labeled antibody) and a cell impermeable dye to gate live cells. The median fluorescence intensity (MFI) of viable cells was measured by flow cytometry and the data were analyzed using FlowJo™ software. Dose curves were fitted using a non-linear regression model; log (agonist) vs response-variable slope (four parameters).

[5] = target: T1, IGF-1R on A549 human lung …; experiment: flow cytometry on A549 cells, binding dose response curve (MFI)
Method: as §1

[6] = target: IGF-1R (as used in the surface plasmon resonance assay of Example 7) (UniProt P08069 31-932, limits assumed); experiment: SPR, pH 7.4
Sequence of IGF-1R (as used in the surface plasmon resonance assay of Example 7) (P08069 31-932 limits assumed): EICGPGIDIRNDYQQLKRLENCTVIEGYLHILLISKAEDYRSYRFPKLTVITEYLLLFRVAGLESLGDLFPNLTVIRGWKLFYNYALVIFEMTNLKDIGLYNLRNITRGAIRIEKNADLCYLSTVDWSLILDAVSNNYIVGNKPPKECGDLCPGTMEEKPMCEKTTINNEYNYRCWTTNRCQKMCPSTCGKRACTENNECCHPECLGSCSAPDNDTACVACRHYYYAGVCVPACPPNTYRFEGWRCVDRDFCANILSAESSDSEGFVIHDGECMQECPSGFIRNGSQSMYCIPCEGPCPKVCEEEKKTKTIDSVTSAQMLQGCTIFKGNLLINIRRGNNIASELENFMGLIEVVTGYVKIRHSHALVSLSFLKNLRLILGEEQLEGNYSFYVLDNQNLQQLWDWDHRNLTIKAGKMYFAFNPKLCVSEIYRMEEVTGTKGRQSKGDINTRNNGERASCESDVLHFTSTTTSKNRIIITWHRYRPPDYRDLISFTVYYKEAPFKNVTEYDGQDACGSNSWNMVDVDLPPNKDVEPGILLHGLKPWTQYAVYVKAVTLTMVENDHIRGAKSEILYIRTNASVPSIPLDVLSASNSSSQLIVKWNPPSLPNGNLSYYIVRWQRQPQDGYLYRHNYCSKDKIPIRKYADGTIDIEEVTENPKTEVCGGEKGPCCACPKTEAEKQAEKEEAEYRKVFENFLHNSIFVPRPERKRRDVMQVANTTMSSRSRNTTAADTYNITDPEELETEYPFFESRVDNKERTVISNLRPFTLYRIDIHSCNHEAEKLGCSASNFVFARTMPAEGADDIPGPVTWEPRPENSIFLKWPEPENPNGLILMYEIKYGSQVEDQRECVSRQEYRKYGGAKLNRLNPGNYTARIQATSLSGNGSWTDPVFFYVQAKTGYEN

T1 sequence (P08069 31-1367): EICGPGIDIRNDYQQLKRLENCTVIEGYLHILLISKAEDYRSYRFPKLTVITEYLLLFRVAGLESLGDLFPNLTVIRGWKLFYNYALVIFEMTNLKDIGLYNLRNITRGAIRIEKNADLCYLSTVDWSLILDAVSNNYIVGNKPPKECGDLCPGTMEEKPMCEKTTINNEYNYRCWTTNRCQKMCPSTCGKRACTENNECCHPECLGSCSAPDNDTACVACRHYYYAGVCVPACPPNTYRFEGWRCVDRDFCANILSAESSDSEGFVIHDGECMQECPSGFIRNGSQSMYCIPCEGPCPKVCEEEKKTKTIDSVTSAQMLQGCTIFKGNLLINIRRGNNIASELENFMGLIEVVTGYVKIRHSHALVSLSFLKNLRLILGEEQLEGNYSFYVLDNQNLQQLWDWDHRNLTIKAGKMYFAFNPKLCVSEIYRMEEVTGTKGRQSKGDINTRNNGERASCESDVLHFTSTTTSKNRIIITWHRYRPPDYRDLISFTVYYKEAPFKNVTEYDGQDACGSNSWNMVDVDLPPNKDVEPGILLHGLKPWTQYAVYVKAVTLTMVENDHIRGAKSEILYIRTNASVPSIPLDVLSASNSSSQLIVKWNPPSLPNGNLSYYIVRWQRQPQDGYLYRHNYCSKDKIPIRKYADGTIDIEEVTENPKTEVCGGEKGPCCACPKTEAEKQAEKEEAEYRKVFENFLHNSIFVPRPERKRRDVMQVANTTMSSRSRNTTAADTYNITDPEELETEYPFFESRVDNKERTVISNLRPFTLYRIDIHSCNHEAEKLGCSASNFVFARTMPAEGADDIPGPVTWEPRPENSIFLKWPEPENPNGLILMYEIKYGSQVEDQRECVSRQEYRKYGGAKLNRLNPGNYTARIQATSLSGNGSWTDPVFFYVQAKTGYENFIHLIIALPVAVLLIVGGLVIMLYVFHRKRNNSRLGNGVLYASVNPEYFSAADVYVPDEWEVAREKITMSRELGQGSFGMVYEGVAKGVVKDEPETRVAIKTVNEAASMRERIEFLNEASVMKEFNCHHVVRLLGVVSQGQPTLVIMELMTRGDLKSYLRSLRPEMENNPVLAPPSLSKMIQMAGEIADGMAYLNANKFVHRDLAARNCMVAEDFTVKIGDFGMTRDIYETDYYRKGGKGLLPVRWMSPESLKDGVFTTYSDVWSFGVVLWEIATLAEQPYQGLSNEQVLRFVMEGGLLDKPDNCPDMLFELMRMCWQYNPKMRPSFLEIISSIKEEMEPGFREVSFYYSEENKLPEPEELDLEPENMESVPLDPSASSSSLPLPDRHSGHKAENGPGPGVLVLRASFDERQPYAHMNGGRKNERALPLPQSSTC

B1: VRDN-1100 with the Fc YTE mutations in the heavy chain (antibody, human IgG1, kappa)
heavy: QVQLVQSGAEVVKPGASVKLSCKASGYTFTSYWMHWVKQRPGQGLEWIGEINPSNGRTNYNQKFQGKATLTVDKSSSTAYMQLSSLTSEDSAVYYFARGRPDYYGSSKWYFDVWGQGTTVTVSSASTKGPSVFPLAPSSKSTSGGTAALGCLVKDYFPEPVTVSWNSGALTSGVHTFPAVLQSSGLYSLSSVVTVPSSSLGTQTYICNVNHKPSNTKVDKKVEPKSCDKTHTCPPCPAPELLGGPSVFLFPPKPKDTLYITREPEVTCVVVDVSHEDPEVKFNWYVDGVEVHNAKTKPREEQYNSTYRVVSVLTVLHQDWLNGKEYKCKVSNKALPAPIEKTISKAKGQPREPQVYTLPPSRDELTKNQVSLTCLVKGFYPSDIAVEWESNGQPENNYKTTPPVLDSDGSFFLYSKLTVDKSRWQQGNVFSCSVMHEALHNHYTQKSLSLSPG
light: DVVMTQTPLSLPVSLGDPASISCRSSQSIVHSNVNTYLEWYLQKPGQSPRLLIYKVSNRFSGVPDRFSGSGAGTDFTLRISRVEAEDLGIYYCFQGSHVPPTFGGGTKLEIKRTVAAPSVFIFPPSDEQLKSGTASVVCLLNNFYPREAKVQWKVDNALQSGNSQESVTEQDSKDSTYSLSSTLTLSKADYEKHKVYACEVTHQGLSSPVTKSFNRGEC
notes: also called YTE Fc mutatant version of VRDN1100; YTE only mutant
EC50 [1]: 0.3 nM | IC50 of inhibition of IGF-1R autophosphorylation [2]: 0.4 nM

B2: VRDN-1100 with C22S mutation and Fc YTE mutations in the heavy chain (antibody, human IgG1, kappa)
heavy: QVQLVQSGAEVVKPGASVKLSSKASGYTFTSYWMHWVKQRPGQGLEWIGEINPSNGRTNYNQKFQGKATLTVDKSSSTAYMQLSSLTSEDSAVYYFARGRPDYYGSSKWYFDVWGQGTTVTVSSASTKGPSVFPLAPSSKSTSGGTAALGCLVKDYFPEPVTVSWNSGALTSGVHTFPAVLQSSGLYSLSSVVTVPSSSLGTQTYICNVNHKPSNTKVDKKVEPKSCDKTHTCPPCPAPELLGGPSVFLFPPKPKDTLYITREPEVTCVVVDVSHEDPEVKFNWYVDGVEVHNAKTKPREEQYNSTYRVVSVLTVLHQDWLNGKEYKCKVSNKALPAPIEKTISKAKGQPREPQVYTLPPSRDELTKNQVSLTCLVKGFYPSDIAVEWESNGQPENNYKTTPPVLDSDGSFFLYSKLTVDKSRWQQGNVFSCSVMHEALHNHYTQKSLSLSPG
light: DVVMTQTPLSLPVSLGDPASISCRSSQSIVHSNVNTYLEWYLQKPGQSPRLLIYKVSNRFSGVPDRFSGSGAGTDFTLRISRVEAEDLGIYYCFQGSHVPPTFGGGTKLEIKRTVAAPSVFIFPPSDEQLKSGTASVVCLLNNFYPREAKVQWKVDNALQSGNSQESVTEQDSKDSTYSLSSTLTLSKADYEKHKVYACEVTHQGLSSPVTKSFNRGEC
notes: also called C22S and Fc YTE mutant; C22S plus YTE mutations
IC50 of inhibition of IGF-1R autophosphorylation [2]: 0.37 nM | EC50 [3]: 0.36 nM

The remaining lines, values ahead:

EC50 [4]: 0.4 nM | EC50 [5]: 0.1 nM | IC50 of inhibition of IGF-1 stimulated receptor phosphorylation on A549 cells (pIGF-1R ELISA) [2]: 0.09 nM | IC50 of inhibition of IGF-1 stimulated receptor phosphorylation on HOCF cells (pIGF-1R ELISA) [2]: 0.09 nM
B3: VRDN-1100 (antibody, V domains shown)
VH: QVQLVQSGAEVVKPGASVKLSCKASGYTFTSYWMHWVKQRPGQGLEWIGEINPSNGRTNYNQKFQGKATLTVDKSSSTAYMQLSSLTSEDSAVYYFARGRPDYYGSSKWYFDVWGQGTTVTVSS
VL: DVVMTQTPLSLPVSLGDPASISCRSSQSIVHSNVNTYLEWYLQKPGQSPRLLIYKVSNRFSGVPDRFSGSGAGTDFTLRISRVEAEDLGIYYCFQGSHVPPTFGGGTKLEIKR
notes: Humanized monoclonal antibody to IGF-1R; also called VRDN-01100

Kd [6]: 0.21 nM | koff [6]: 2.18e-05 s⁻¹ | kon [6]: 104000 M⁻¹ s⁻¹
B4: mutant of VRDN-1100 with a C22S mutation in the heavy chain (antibody, V domains shown)
VH: QVQLVQSGAEVVKPGASVKLSSKASGYTFTSYWMHWVKQRPGQGLEWIGEINPSNGRTNYNQKFQGKATLTVDKSSSTAYMQLSSLTSEDSAVYYFARGRPDYYGSSKWYFDVWGQGTTVTVSS
VL: DVVMTQTPLSLPVSLGDPASISCRSSQSIVHSNVNTYLEWYLQKPGQSPRLLIYKVSNRFSGVPDRFSGSGAGTDFTLRISRVEAEDLGIYYCFQGSHVPPTFGGGTKLEIK
